From patent publication EP4707304A1 (Axcynsis Therapeutics Pte. Ltd., dated 2024)

B1: humanized antibody hAb-6 (antibody, V domains shown)
VH: EVKLVESGGGLVKPGGSLRLSCAASGFTFNSYTMSWVRQAPGKRLEWVVTISSGGGRTYYPDSVKGRFTISRDNAKNTLYLQMSSLRAEDTAVYYCIRGDYRYDGFAYWGQGTLVTVSS
VL: DIQMTQSPSSLSASVGDRVTITCRASENIDSYLAWYQQKPGKSPQLLVYASTLLQDGVPSRFSGSRSGTDFTLTISSLQPEDVATYYCQHYYSIPYTFGSGTKLEIK
B2: humanized antibody hAb-14 (antibody, V domains shown)
VH: EVKLVESGGGLVQPGGSLRLSCAASGFTFNSYTMSWVRQAPGKRLEWVVTISSGGGRTYYPDSVKGRFTISRDNAKNTLYLQMSSLRAEDTAVYYCIRGDYRYDGFAYWGQGTLVTVSS
VL: DIQMTQSPSSLSASVGDRVTITCRASENIDSYLAWYQQKPGKSPQLLVYASTLLQDGVPSRFSGSRSGTDFTLTISSLQPEDVATYYCQHYYSIPYTFGSGTKLEIK
B3: humanized antibody hAb-7 (antibody, V domains shown)
VH: EVKLVESGGGLVKPGGSLRLSCAASGFTFNSYTMSWVRQAPGKRLEWVVTISSGGGRTYYPDSVKGRFTISRDNAKNTLYLQMSSLRAEDTAVYYCIRGDYRYDGFAYWGQGTLVTVSS
VL: DIQMTQSPSSLSASVGDRVTITCRASENIDSYLAWYQQKPGKSPQLLVYASTLLQDGVPSRFSGSRSGTQFTLTISSLQPEDVARYYCQHYYSIPYTFGSGTKLEIK
B4: humanized antibody hAb-19 (antibody, V domains shown)
VH: EVKLVESGGGLVQPGGSLRLSCAASGFTFNSYTMSWVRQTPAKRLEWVVTISSGGGRTYYPDSVKGRFTISRDNAKNTLYLQMSSLRAEDTAVYYCIRGDYRYDGFAYWGQGTLVTVSS
VL: DIQMTQSPSSLSASVGDRVTITCRASENIDSYLAWYQQKPGKSPQLLVYASTLLQDGVPSRFSGSRSGTQFTLTISSLQPEDVARYYCQHYYSIPYTFGSGTKLEIK
B5: humanized antibody hAb-20 (antibody, V domains shown)
VH: EVKLVESGGGLVQPGGSLRLSCAASGFTFNSYTMSWVRQTPAKRLEWVVTISSGGGRTYYPDSVKGRFTISRDNAKNTLYLQMSSLRAEDTAVYYCIRGDYRYDGFAYWGQGTLVTVSS
VL: DIQMTQSPSSLSASVGDRVTITCRASENIDSYLAWYQQKPGKSPQLLVYASTLLQDGVPSRFSGSRSGTQFTLTISSLQPEDFATYYCQHYYSIPYTFGSGTKLEIK
B6: humanized antibody hAb-21 (antibody, V domains shown)
VH: EVKLVESGGGLVQPGGSLRLSCAASGFTFNSYTMSWVRQTPAKRLEWVVTISSGGGRTYYPDSVKGRFTISRDNAKNTLYLQMSSLRAEDTAVYYCIRGDYRYDGFAYWGQGTLVTVSS
VL: DIQMTQSPSSLSASVGDRVTITCRASENIDSYLAWYQQKPGKSPQLLVYASTLLVDGVPSRFSGSRSGTQFSLTISSLQPEDVARYYCQHYYSIPYTFGSGTKLEIK
B7: humanized antibody hAb-8 (antibody, V domains shown)
VH: EVKLVESGGGLVKPGGSLRLSCAASGFTFNSYTMSWVRQAPGKRLEWVVTISSGGGRTYYPDSVKGRFTISRDNAKNTLYLQMSSLRAEDTAVYYCIRGDYRYDGFAYWGQGTLVTVSS
VL: DIQMTQSPSSLSASVGDRVTITCRASENIDSYLAWYQQKPGKSPQLLVYASTLLQDGVPSRFSGSRSGTQFTLTISSLQPEDFATYYCQHYYSIPYTFGSGTKLEIK
B8: humanized antibody hAb-23 (antibody, V domains shown)
VH: EVKLVESGGGLVKPGGSLRLSCAASGFTFNSYTMSWVRQTPAKRLEWVVTISSGGGRTYYPDSVKGRFTISRDNARNTLYLQMSSLRAEDTAVYYCIRGDYRYDGFAYWGQGTLVTVSS
VL: DIQMTQSPSSLSASVGDRVTITCRASENIDSYLAWYQQKPGKSPQLLVYASTLLQDGVPSRFSGSRSGTQFTLTISSLQPEDVARYYCQHYYSIPYTFGSGTKLEIK
B9: humanized antibody hAb-12 (antibody, V domains shown)
VH: EVKLVESGGGLVKPGGSLRLSCAASGFTFNSYTMSWVRQTPAKRLEWVVTISSGGGRTYYPDSVKGRFTISRDNAKNTLYLQMSSLRAEDTAVYYCIRGDYRYDGFAYWGQGTLVTVSS
VL: DIQMTQSPSSLSASVGDRVTITCRASENIDSYLAWYQQKPGKSPQLLVYASTLLQDGVPSRFSGSRSGTQFTLTISSLQPEDFATYYCQHYYSIPYTFGSGTKLEIK
B10: humanized antibody hAb-11 (antibody, V domains shown)
VH: EVKLVESGGGLVKPGGSLRLSCAASGFTFNSYTMSWVRQTPAKRLEWVVTISSGGGRTYYPDSVKGRFTISRDNAKNTLYLQMSSLRAEDTAVYYCIRGDYRYDGFAYWGQGTLVTVSS
VL: DIQMTQSPSSLSASVGDRVTITCRASENIDSYLAWYQQKPGKSPQLLVYASTLLQDGVPSRFSGSRSGTQFTLTISSLQPEDVARYYCQHYYSIPYTFGSGTKLEIK
B11: humanized antibody hAb-17 (antibody, V domains shown)
VH: EVKLVESGGGLVQPGGSLRLSCAASGFTFNSYTMSWVRQAPGKRLEWVVTISSGGGRTYYPDSVKGRFTISRDNAKNTLYLQMSSLRAEDTAVYYCIRGDYRYDGFAYWGQGTLVTVSS
VL: DIQMTQSPSSLSASVGDRVTITCRASENIDSYLAWYQQKPGKSPQLLVYASTLLVDGVPSRFSGSRSGTQFSLTISSLQPEDVARYYCQHYYSIPYTFGSGTKLEIK
B12: humanized antibody hAb-22 (antibody, V domains shown)
VH: EVKLVESGGGLVKPGGSLRLSCAASGFTFNSYTMSWVRQTPAKRLEWVVTISSGGGRTYYPDSVKGRFTISRDNARNTLYLQMSSLRAEDTAVYYCIRGDYRYDGFAYWGQGTLVTVSS
VL: DIQMTQSPSSLSASVGDRVTITCRASENIDSYLAWYQQKPGKSPQLLVYASTLLQDGVPSRFSGSRSGTDFTLTISSLQPEDVATYYCQHYYSIPYTFGSGTKLEIK
B13: humanized antibody hAb-15 (antibody, V domains shown)
VH: EVKLVESGGGLVQPGGSLRLSCAASGFTFNSYTMSWVRQAPGKRLEWVVTISSGGGRTYYPDSVKGRFTISRDNAKNTLYLQMSSLRAEDTAVYYCIRGDYRYDGFAYWGQGTLVTVSS
VL: DIQMTQSPSSLSASVGDRVTITCRASENIDSYLAWYQQKPGKSPQLLVYASTLLQDGVPSRFSGSRSGTQFTLTISSLQPEDVARYYCQHYYSIPYTFGSGTKLEIK
B14: humanized antibody hAb-13 (antibody, V domains shown)
VH: EVKLVESGGGLVKPGGSLRLSCAASGFTFNSYTMSWVRQTPAKRLEWVVTISSGGGRTYYPDSVKGRFTISRDNAKNTLYLQMSSLRAEDTAVYYCIRGDYRYDGFAYWGQGTLVTVSS
VL: DIQMTQSPSSLSASVGDRVTITCRASENIDSYLAWYQQKPGKSPQLLVYASTLLVDGVPSRFSGSRSGTQFSLTISSLQPEDVARYYCQHYYSIPYTFGSGTKLEIK
B15: humanized antibody hAb-16 (antibody, V domains shown)
VH: EVKLVESGGGLVQPGGSLRLSCAASGFTFNSYTMSWVRQAPGKRLEWVVTISSGGGRTYYPDSVKGRFTISRDNAKNTLYLQMSSLRAEDTAVYYCIRGDYRYDGFAYWGQGTLVTVSS
VL: DIQMTQSPSSLSASVGDRVTITCRASENIDSYLAWYQQKPGKSPQLLVYASTLLQDGVPSRFSGSRSGTQFTLTISSLQPEDFATYYCQHYYSIPYTFGSGTKLEIK
B16: humanized antibody hAb-10 (antibody, V domains shown)
VH: EVKLVESGGGLVKPGGSLRLSCAASGFTFNSYTMSWVRQTPAKRLEWVVTISSGGGRTYYPDSVKGRFTISRDNAKNTLYLQMSSLRAEDTAVYYCIRGDYRYDGFAYWGQGTLVTVSS
VL: DIQMTQSPSSLSASVGDRVTITCRASENIDSYLAWYQQKPGKSPQLLVYASTLLQDGVPSRFSGSRSGTDFTLTISSLQPEDVATYYCQHYYSIPYTFGSGTKLEIK
B17: humanized antibody hAb-9 (antibody, V domains shown)
VH: EVKLVESGGGLVKPGGSLRLSCAASGFTFNSYTMSWVRQAPGKRLEWVVTISSGGGRTYYPDSVKGRFTISRDNAKNTLYLQMSSLRAEDTAVYYCIRGDYRYDGFAYWGQGTLVTVSS
VL: DIQMTQSPSSLSASVGDRVTITCRASENIDSYLAWYQQKPGKSPQLLVYASTLLVDGVPSRFSGSRSGTQFSLTISSLQPEDVARYYCQHYYSIPYTFGSGTKLEIK
B18: humanized antibody hAb-18 (antibody, V domains shown)
VH: EVKLVESGGGLVQPGGSLRLSCAASGFTFNSYTMSWVRQTPAKRLEWVVTISSGGGRTYYPDSVKGRFTISRDNAKNTLYLQMSSLRAEDTAVYYCIRGDYRYDGFAYWGQGTLVTVSS
VL: DIQMTQSPSSLSASVGDRVTITCRASENIDSYLAWYQQKPGKSPQLLVYASTLLQDGVPSRFSGSRSGTDFTLTISSLQPEDVATYYCQHYYSIPYTFGSGTKLEIK

Key:
VLP-hCLDN6 (human) [1] = target: T1, VLP-hCLDN6 (human) (UniProt P56747); experiment: ELISA, coated VLP-hCLDN6, 10 ul antibody sample, HRP-Protein A
T1 sequence: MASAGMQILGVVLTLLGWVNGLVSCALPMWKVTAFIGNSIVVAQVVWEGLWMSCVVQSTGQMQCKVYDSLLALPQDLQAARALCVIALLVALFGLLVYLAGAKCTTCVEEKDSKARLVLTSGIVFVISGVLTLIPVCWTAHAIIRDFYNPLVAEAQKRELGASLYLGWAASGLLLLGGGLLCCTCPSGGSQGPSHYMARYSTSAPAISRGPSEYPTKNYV

VLP-hCLDN6 (human) [2] = target: T1, VLP-hCLDN6 (human); experiment: ELISA, coated VLP-hCLDN6, 100 ul antibody sample, HRP-Protein A
VLP-hCLDN6 (human) [3] = target: T1, VLP-hCLDN6 (human); experiment: ELISA, coated VLP-hCLDN6, 100 ul antibody sample (second well), HRP-Protein A
VLP-hCLDN6 (human) [4] = target: T1, VLP-hCLDN6 (human); experiment: ELISA, coated VLP-hCLDN6, 10 ul antibody sample (second well), HRP-Protein A

Binder | OD450 (VLP-hCLDN6 (human) [1]) | OD450 (VLP-hCLDN6 (human) [2]) | OD450 (VLP-hCLDN6 (human) [3]) | OD450 (VLP-hCLDN6 (human) [4])
B1 | 0.89 | 1.55 | 1.61 | 1.04
B2 | 0.22 | 0.97 | 0.99 | 0.23
B3 | 1.37 | 1.73 | 1.91 | 1.46
B4 | 1.62 | 1.7 | 1.79 | 1.57
B5 | 1.38 | 1.81 | 1.68 | 1.41
B6 | 2.05 | 2.23 | 2.45 | 1.9
B7 | 1.27 | 1.84 | 1.88 | 1.22
B8 | 1.42 | 1.82 | 2.05 | 1.46
B9 | 1.36 | 1.76 | 1.67 | 1.4
B10 | 1.41 | 1.81 | 1.8 | 1.54
B11 | 1.6 | 1.93 | 1.78 | 1.72
B12 | 1.12 | 1.63 | 1.65 | 0.96
B13 | 1.39 | 1.78 | 1.8 | 1.47
B14 | 1.68 | 1.95 | 2.26 | 1.7
B15 | 1.26 | 1.39 | 1.71 | 1.24
B16 | 1.18 | 1.5 | 1.51 | 1.13
B17 | 1.71 | 1.84 | 1.94 | 1.57
B18 | 1.17 | 1.68 | 1.52 | 1.13
